Test results: PMC2119692

Tests used:
[1] = target: calmodulin targets in the leading lamellae (region of transverse fibers) of Swiss 3T3 fibroblasts during wound healing; assay: steady state fluorescence anisotropy imaging microscopy
[2] = target: target proteins of calmodulin in serum-deprived and serum-stimulated Swiss 3T3 fibroblasts; assay: as above

Work on “FITC-calmodulin (from UniProt P62157 1-149) (natural protein)” yielded a maximum fraction bound (fB) [1] of 50%, a fraction bound (fB) [2] of under 10% and a maximum fraction bound (fB) [2] of 95%.
